Experimental data from patent publication US20170137467A1 (CHROMOTEK, published 2017).
Where a chain is given by its changes, count along the chain named. One block for each binder: values may come before it. Square brackets hold non-standard residues; d marks the D form. GABA = NCCCC(=O)O

What was measured:
Test in all cases: library pulldown, LC-MS of supernatant; ratio vs GFP-Nb control (0=captured, 1=not captured)
BC2T V7D = target: T1, BC2T V7D (human)
T1 construct: position 7 library, row D
T1 peptide: Ac-PDRKAADSHWQQ-NH2
From the text: (§1) In total, 12 different BC2T libraries displaying all 20 proteinogenic amino acids in one single position of the peptide were used in immunoprecipitation experiments. […] The direct comparison with the GFP-Nb made it possible to determine the quantitative degree of peptide capture without the need of labeled standards. […] The more peptide was captured the more the value approximates 0. It was not possible to discriminate between isoleucine (I) and leucine (L) peptide versions since these peptides are isobaric.
(§2) To investigate the binding specificity of the BC2T and derived mutants peptide libraries for each amino acid position of the sequence […] (SEQ ID NO:4) were synthesized with acetyl and amide groups located at the N-termini or C-termini respectively (Intavis). […] Incubations were performed in 300 μl PBS/0.01% CHAPS for 1 h on a HulaMixer (Life Technologies). Subsequent to a centrifugation step 10 μl supernatant were analyzed in a LC-MS procedure. Peptides were separated using an UltiMate3000 RSLCnano System (Thermo Scientific), composed of a C18 PepMap100μ-Precolumn (300 μm×5 mm; particle size: 5 μm; pore size: 100 Å—Thermo Scientific) and a C18 analytical column (Acclaim Rapid Separation LC (RSLC) Column: 150 mm×5 mm; particle size: 2.2 μm; pore size: 100 Å—Thermo Scientific). A step gradient was applied starting at 8% and ending after 20 min at 30% eluent B (80% acetonitrile, 20% H₂O, 0.1% formic acid).

BC2T R3Y = target: T2, BC2T R3Y (human)
T2 construct: position 3 library (BC2TR3X), row Y
T2 peptide: Ac-PDYKAAVSHWQQ-NH2
From the text: as §1, §2

BC2T K4S = target: T3, BC2T K4S (human)
T3 construct: position 4 library, row S
T3 peptide: Ac-PDRSAAVSHWQQ-NH2
From the text: as §1, §2

BC2T V7Y = target: T4, BC2T V7Y (human)
T4 construct: position 7 library, row Y
T4 peptide: Ac-PDRKAAYSHWQQ-NH2
From the text: as §1, §2

BC2T R3Q = target: T5, BC2T R3Q (human)
T5 construct: position 3 library (BC2TR3X), row Q
T5 peptide: Ac-PDQKAAVSHWQQ-NH2
From the text: as §1, §2

BC2T K4H = target: T6, BC2T K4H (human)
T6 construct: position 4 library, row H
T6 peptide: Ac-PDRHAAVSHWQQ-NH2
From the text: as §1, §2

BC2T A6E = target: T7, BC2T A6E (human)
T7 construct: position 6 library (BC2TA6X), row E
T7 peptide: Ac-PDRKAEVSHWQQ-NH2
From the text: as §1, §2

BC2T D2K = target: T8, BC2T D2K (human)
T8 construct: position 2 library, row K
T8 peptide: Ac-PKRKAAVSHWQQ-NH2
From the text: as §1, §2

BC2T V7R = target: T9, BC2T V7R (human)
T9 construct: position 7 library, row R
T9 peptide: Ac-PDRKAARSHWQQ-NH2
From the text: as §1, §2

BC2T A5R = target: T10, BC2T A5R (human)
T10 construct: position 5 library, row R
T10 peptide: Ac-PDRKRAVSHWQQ-NH2
From the text: as §1, §2

BC2T K4F = target: T11, BC2T K4F (human)
T11 construct: position 4 library, row F
T11 peptide: Ac-PDRFAAVSHWQQ-NH2
From the text: as §1, §2

BC2T K4Q = target: T12, BC2T K4Q (human)
T12 construct: position 4 library, row Q
T12 peptide: Ac-PDRQAAVSHWQQ-NH2
From the text: as §1, §2

BC2T K4Y = target: T13, BC2T K4Y (human)
T13 construct: position 4 library, row Y
T13 peptide: Ac-PDRYAAVSHWQQ-NH2
From the text: as §1, §2

BC2T V7P = target: T14, BC2T V7P (human)
T14 construct: position 7 library, row P
T14 peptide: Ac-PDRKAAPSHWQQ-NH2
From the text: as §1, §2

BC2T R3C(Abu) = target: T15, BC2T R3C(Abu) (human, SMILES …)
T15 construct: position 3 library (BC2TR3X), row C(Abu) / C*
T15 peptide: Ac-PD[GABA]KAAVSHWQQ-NH2
From the text: as §1, §2

BC2T P1Q = target: T16, BC2T P1Q (human)
T16 construct: position 1 library, row Q
T16 peptide: Ac-QDRKAAVSHWQQ-NH2
From the text: as §1, §2

BC2T V7T = target: T17, BC2T V7T (human)
T17 construct: position 7 library, row T
T17 peptide: Ac-PDRKAATSHWQQ-NH2
From the text: as §1, §2

BC2T P1K = target: T18, BC2T P1K (human)
T18 construct: position 1 library, row K
T18 peptide: Ac-KDRKAAVSHWQQ-NH2
From the text: as §1, §2

BC2T V7H = target: T19, BC2T V7H (human)
T19 construct: position 7 library, row H
T19 peptide: Ac-PDRKAAHSHWQQ-NH2
From the text: as §1, §2

BC2T K4W = target: T20, BC2T K4W (human)
T20 construct: position 4 library, row W
T20 peptide: Ac-PDRWAAVSHWQQ-NH2
From the text: as §1, §2

BC2T A6S = target: T21, BC2T A6S (human)
T21 construct: position 6 library (BC2TA6X), row S
T21 peptide: Ac-PDRKASVSHWQQ-NH2
From the text: as §1, §2

BC2T A6H = target: T22, BC2T A6H (human)
T22 construct: position 6 library (BC2TA6X), row H
T22 peptide: Ac-PDRKAHVSHWQQ-NH2
From the text: as §1, §2

ratio (BC2T V7D): 0.5 | ratio (BC2T R3Y): 0.7 | ratio (BC2T K4S): 0.3 | ratio (BC2T V7Y): 0.1 | ratio (BC2T R3Q): 0.5 | ratio (BC2T K4H): 0.1 | ratio (BC2T A6E): 1.1 | ratio (BC2T D2K): 0.2 | ratio (BC2T V7R): 0.2 | ratio (BC2T A5R): 0.2 | ratio (BC2T K4F): 0.3 | ratio (BC2T K4Q): 0.1 | ratio (BC2T K4Y): 0.2 | ratio (BC2T V7P): 1 | ratio (BC2T R3C(Abu)): 0.5 | ratio (BC2T P1Q): 0.6 | ratio (BC2T V7T): 0.2 | ratio (BC2T P1K): 0.3 | ratio (BC2T V7H): 0.3 | ratio (BC2T K4W): 0.3 | ratio (BC2T A6S): 0.5 | ratio (BC2T A6H): 1.1
B1: BC2 nanobody (BC2-Nb) (VHH)
VHH: QVQLVESGGGLVQPGGSLTLSCTASGFTLDHYDIGWFRQAPGKEREGVSCINNSDDDTYYADSVKGRFTIFMDNAKDTVYLQMNSLKPEDTAIYYCAEARGCKRGRYEYDFWGQGTQVTVSS
notes: immobilised on agarose/sepharose beads in this assay; also called BC2 nanotrap (immobilised form); not shown: C-terminal 6xHis-tag added by pHEN6 vector

ratio (BC2T V7D): 0.9 | ratio (BC2T R3Y): 1 | ratio (BC2T K4S): 0.7 | ratio (BC2T V7Y): 0.3 | ratio (BC2T R3Q): 0.9 | ratio (BC2T K4H): 0.3 | ratio (BC2T A6E): 1 | ratio (BC2T D2K): 0.2 | ratio (BC2T V7R): 0.2 | ratio (BC2T A5R): 0.1 | ratio (BC2T K4F): 0.7 | ratio (BC2T K4Q): 0.4 | ratio (BC2T K4Y): 0.5 | ratio (BC2T V7P): 1 | ratio (BC2T R3C(Abu)): 0.9 | ratio (BC2T P1Q): 0.7 | ratio (BC2T V7T): 0.3 | ratio (BC2T P1K): 0.5 | ratio (BC2T V7H): 0.4 | ratio (BC2T K4W): 0.8 | ratio (BC2T A6S): 0.8 | ratio (BC2T A6H): 0.9
B2: BC2-NbR106S (VHH)
VHH: B1 VHH with R106S
notes: immobilised on beads in this assay; not shown: C-terminal 6xHis-tag added by pHEN6 vector
